{
  "source": "paper PMC7587441",
  "about": "“Plasmodium falciparum Apicomplexan-Specific Glucosamine-6-Phosphate N-Acetyltransferase Is Key for Amino Sugar Metabolism and Asexual Blood Stage Development” (mBio, 2020)",
  "proteins": {"B1": {"name": "CpGNA1 (Cryptosporidium parvum Iowa II) (protein)", "chain": "MISSFEVRKATIDDYFELRNLICDVTRCTETLSREQAEERFRYNTYHPYCLVDTENGRIVGYAGFYIIPHLGRKNDSRIEHVIISKEYRNRGLGRLLCKQIIEDAKNKFNCGRIDLTVESHIAKKLYSSLEFEKVNTEVMRNSFLDLTPKSD", "notes": "N-terminal GST tag kept (not cleaved), pGEX-6P-1, codon-optimized"}},
  "substrate": "CC(=O)SCCNC(=O)CCNC(=O)[C@H](O)C(C)(C)COP(=O)(O)OP(=O)(O)OC[C@H]1O[C@@H](n2cnc3c(N)ncnc32)[C@H](O)[C@@H]1OP(=O)(O)O",
  "test": "DTNB colorimetric assay of CoA release",
  "assay_type": "biochemical, Cryptosporidium parvum",
  "conditions": "2000 μM GlcN6P fixed, 25 mM Tris-HCl, 150 mM NaCl, pH 7.2, room temperature",
  "text": "DTNB colorimetric assay of CoA release on CpGNA1",
  "data": [
    {"protein": "B1", "values": [
      {"measurement": "Km", "value": "531 ± 80.33", "unit": "µM"}
    ]}
  ]
}
